Source: publication PMC11931385, “Structural and functional analysis of cancer-associated missense variants in the retinoblastoma protein pocket domain” (The Journal of Biological Chemistry, 2025)
Residue numbers refer to the chain shown, from its start. Names and notes keep the numbering of the source. No end group written: not given here. TMR = tetramethyl rhodamine dye

What was measured:
Conditions in all cases: both partners purified
[1] = biological target: T1, retinoblastoma protein pocket domain (Rb^P), wild type (human, UniProt P06400 380-788); assay: fluorescence polarisation; 25 °C after warming to 37 °C (7 min ramp, 2 min at 37 °C), 1 min on ice and 3 min at 25 °C; unlabeled Rb^P against 1.5 nM TMR-E2F1^TD or 7.5 nM TMR-E7^LxCxE; 25 mM Tris pH 8.0, 200 mM NaCl, 1 mM DTT, 0.1% Tween-20; apparent Kd
T1 construct: also called WT Rb^P; WT
T1 sequence (looked up): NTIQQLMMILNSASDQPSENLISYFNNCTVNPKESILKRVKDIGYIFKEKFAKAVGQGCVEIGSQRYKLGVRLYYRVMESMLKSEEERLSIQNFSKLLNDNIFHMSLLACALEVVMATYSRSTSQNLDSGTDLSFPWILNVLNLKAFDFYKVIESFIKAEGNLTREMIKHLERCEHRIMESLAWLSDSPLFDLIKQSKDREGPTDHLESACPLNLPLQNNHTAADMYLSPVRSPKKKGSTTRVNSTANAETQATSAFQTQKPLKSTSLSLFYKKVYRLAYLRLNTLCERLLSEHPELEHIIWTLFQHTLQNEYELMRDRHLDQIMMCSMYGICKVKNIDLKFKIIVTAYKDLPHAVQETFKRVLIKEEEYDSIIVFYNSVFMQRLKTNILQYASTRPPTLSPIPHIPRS

Rb^P I703F = biological target: T2, Rb^P I703F (human, UniProt P06400 380-788, I703F); assay: as above
T2 construct: also called variant 64
T2 sequence (looked up): T1 sequence (looked up) with I324F

Rb^P E554K = biological target: T3, Rb^P E554K (human, UniProt P06400 380-788, E554K); assay: as above
T3 construct: also called variant 28
T3 sequence (looked up): T1 sequence (looked up) with E175K

Rb^P I679F = biological target: T4, Rb^P I679F (human, UniProt P06400 380-788, I679F); assay: fluorescence polarisation; 37 °C, after the 25 °C reading ramped over 7 min to 37 °C and 2 min incubation; unlabeled Rb^P against 1.5 nM TMR-E2F1^TD or 7.5 nM TMR-E7^LxCxE; 25 mM Tris pH 8.0, 200 mM NaCl, 1 mM DTT, 0.1% Tween-20; apparent Kd
T4 construct: also called variant 57
T4 sequence (looked up): T1 sequence (looked up) with I300F

Rb^P R451S = biological target: T5, Rb^P R451S (human, UniProt P06400 380-788, R451S); assay: as above
T5 construct: also called variant 7
T5 sequence (looked up): T1 sequence (looked up) with R72S

B1: TMR-E2F1^TD, peptide of the E2F1 transactivation domain (peptide)
peptide: {TMR}-GEGIRDLFDCDFGDLTPLD
notes: also called E2F^TD; source: synthetic peptide, bought: GenScript
Kd [1]: 17 nM
Kd (Rb^P I703F): 94 nM
Kd (Rb^P E554K): 1740 nM
Kd (Rb^P I679F): 33 nM
Kd (Rb^P R451S): 44 nM

B2: TMR-E7^LxCxE, LxCxE peptide of the E7 oncoprotein from HPV (peptide)
peptide: DLYCYEQLN
modifications: also: TMR label, position not given here
notes: source: synthetic peptide, bought: GenScript
Kd [1]: 7 nM
Kd (Rb^P I703F): 53 nM
Kd (Rb^P E554K): 24 nM
Kd (Rb^P I679F): 20 nM
Kd (Rb^P R451S): 17 nM
